Data: US20210371506A1

How the values were obtained:
[1] = target: Aβ1-42 monomer (human); test: SPR, Biacore T200; IgG captured on Protein A chip, Aβ1-42 monomer flowed over
[2] = target: Aβ1-42 fibrils (human); test: SPR, Biacore T200; Aβ1-42 fibrils amine-coupled to CM5 chip, antibody flowed over
Sequence of Aβ1-42 fibrils (human) (peptide, as listed by the source): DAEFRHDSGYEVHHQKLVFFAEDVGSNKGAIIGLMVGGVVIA

Sequence of Aβ1-42 monomer (human) (peptide, as listed by the source): as above

## Aducanumab (antibody)
[1]
  Kd: 3200 nM
[2]
  Kd: 75.2 nM
